# Tests used:
# [1] = target: sulfonylurea receptor SUR1 (UniProt Q09427)
# [2] = target: sulfonylurea receptor SUR1 (UniProt Q09427); remark: listed apart in the source
# [3] = target: sulfonylurea receptor SUR1 (UniProt Q09427); remark: listed apart in the source
# Chain of UniProt Q09427 (Q09427 whole entry): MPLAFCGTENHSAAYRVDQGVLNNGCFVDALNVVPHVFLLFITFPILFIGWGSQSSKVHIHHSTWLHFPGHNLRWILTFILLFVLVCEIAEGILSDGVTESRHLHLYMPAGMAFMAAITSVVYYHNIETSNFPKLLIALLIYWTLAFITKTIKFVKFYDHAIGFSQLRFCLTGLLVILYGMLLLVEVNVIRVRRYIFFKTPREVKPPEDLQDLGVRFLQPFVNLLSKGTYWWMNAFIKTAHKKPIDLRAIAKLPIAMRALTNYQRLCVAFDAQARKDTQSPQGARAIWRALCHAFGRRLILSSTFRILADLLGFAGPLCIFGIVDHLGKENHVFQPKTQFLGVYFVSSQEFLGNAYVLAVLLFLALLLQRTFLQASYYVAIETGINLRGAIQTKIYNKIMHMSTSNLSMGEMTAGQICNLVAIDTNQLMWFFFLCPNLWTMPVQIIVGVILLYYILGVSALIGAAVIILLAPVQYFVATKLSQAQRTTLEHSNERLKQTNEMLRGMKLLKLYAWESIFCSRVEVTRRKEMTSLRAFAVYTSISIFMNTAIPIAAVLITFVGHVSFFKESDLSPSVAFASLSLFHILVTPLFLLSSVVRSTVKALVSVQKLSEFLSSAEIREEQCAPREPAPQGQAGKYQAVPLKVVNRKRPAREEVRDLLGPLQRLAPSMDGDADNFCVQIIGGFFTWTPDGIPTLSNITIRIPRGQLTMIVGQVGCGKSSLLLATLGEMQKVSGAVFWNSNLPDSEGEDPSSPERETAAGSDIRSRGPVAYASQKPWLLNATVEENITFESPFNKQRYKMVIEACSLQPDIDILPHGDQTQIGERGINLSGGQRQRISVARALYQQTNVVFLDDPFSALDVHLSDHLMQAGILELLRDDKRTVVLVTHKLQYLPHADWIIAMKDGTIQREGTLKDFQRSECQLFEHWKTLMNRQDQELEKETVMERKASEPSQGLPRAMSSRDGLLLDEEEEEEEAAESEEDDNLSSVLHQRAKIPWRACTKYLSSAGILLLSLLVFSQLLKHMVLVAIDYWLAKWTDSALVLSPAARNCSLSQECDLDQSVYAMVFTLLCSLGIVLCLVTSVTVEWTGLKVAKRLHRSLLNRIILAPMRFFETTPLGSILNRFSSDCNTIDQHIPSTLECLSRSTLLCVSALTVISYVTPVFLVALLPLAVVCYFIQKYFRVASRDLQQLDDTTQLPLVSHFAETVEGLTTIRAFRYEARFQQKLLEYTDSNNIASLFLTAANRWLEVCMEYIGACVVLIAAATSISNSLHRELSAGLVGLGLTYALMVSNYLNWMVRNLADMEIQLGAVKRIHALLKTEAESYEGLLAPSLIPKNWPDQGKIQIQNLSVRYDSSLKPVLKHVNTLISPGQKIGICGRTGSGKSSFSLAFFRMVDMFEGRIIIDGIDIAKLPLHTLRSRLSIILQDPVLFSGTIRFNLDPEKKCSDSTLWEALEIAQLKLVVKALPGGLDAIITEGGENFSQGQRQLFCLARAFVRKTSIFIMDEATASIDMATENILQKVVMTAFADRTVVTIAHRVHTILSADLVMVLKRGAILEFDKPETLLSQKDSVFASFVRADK
Binder,"reactivation by MgADP of ATP-inhibited channels, inside-out patch clamp [1] [%]","inhibition of channel activity by 200 nM glyburide, inside-out patch clamp [2] [%]","inhibition of channel activity by 0.5 μM glyburide, inside-out patch clamp [3] [%]"
Kir6.2 wild-type linked to GFP at the COOH terminus (natural protein) MLSRKGIIPEEYVLTRLAEDPAEPRYRTRERRARFVSKKGNCNVAHKNIREQGRFLQDVFTTLVDLKWPHTLLIFTMSFLCSWLLFAMVWWLIAFAHGDLAPGEGTNVPCVTSIHSFSSAFLFSIEVQVTIGFGGRMVTEECPLAILILIVQNIVGLMINAIMLGCIFMKTAQAHRRAETLIFSKHAVITLRHGRLCFMLRVGDLRKSMIISATIHMQVVRKTTSPEGEVVPLHQVDIPMENGVGGNGIFLVAPLIIYHVIDSNSPLYDLAPSDLHHHQDLEIIVILEGVVETTGITTQARTSYLADEILWGQRFVPIVAEEDGRYSVDYSKFGNTIKVPTPLCTARQLDEDRSLLDALTLASSRGPLRKRSVAVAKAKPKFSISPDSLS,46,45,–
Kir6.2 mutant R176C linked to GFP (natural protein) MLSRKGIIPEEYVLTRLAEDPAEPRYRTRERRARFVSKKGNCNVAHKNIREQGRFLQDVFTTLVDLKWPHTLLIFTMSFLCSWLLFAMVWWLIAFAHGDLAPGEGTNVPCVTSIHSFSSAFLFSIEVQVTIGFGGRMVTEECPLAILILIVQNIVGLMINAIMLGCIFMKTAQAHCRAETLIFSKHAVITLRHGRLCFMLRVGDLRKSMIISATIHMQVVRKTTSPEGEVVPLHQVDIPMENGVGGNGIFLVAPLIIYHVIDSNSPLYDLAPSDLHHHQDLEIIVILEGVVETTGITTQARTSYLADEILWGQRFVPIVAEEDGRYSVDYSKFGNTIKVPTPLCTARQLDEDRSLLDALTLASSRGPLRKRSVAVAKAKPKFSISPDSLS,6,–,5.5

# Reference: paper PMC2233703
